Test results: paper PMC2858642

Target: His6-Bcl-2ΔTM G154A/G155A mutant
Test: fluorescence polarisation

Substance: His6-Bcl-2ΔTM G154A/G155A mutant (domain or fragment)
- Kd: 30 nM
